Positions of bridges follow the written chain, without caps; N, C: chain ends. Non-standard residues stand in square brackets, D forms with d. No end group written: not given here. *: point of attachment. Acetyl(2-(4-imidazolyl)) = O=C(Cc1c[nH]cn1)*; Aib = CC(C)(N)C(=O)O
T1: human GIP receptor (human, UniProt P48546 22-466)
T1 sequence (looked up): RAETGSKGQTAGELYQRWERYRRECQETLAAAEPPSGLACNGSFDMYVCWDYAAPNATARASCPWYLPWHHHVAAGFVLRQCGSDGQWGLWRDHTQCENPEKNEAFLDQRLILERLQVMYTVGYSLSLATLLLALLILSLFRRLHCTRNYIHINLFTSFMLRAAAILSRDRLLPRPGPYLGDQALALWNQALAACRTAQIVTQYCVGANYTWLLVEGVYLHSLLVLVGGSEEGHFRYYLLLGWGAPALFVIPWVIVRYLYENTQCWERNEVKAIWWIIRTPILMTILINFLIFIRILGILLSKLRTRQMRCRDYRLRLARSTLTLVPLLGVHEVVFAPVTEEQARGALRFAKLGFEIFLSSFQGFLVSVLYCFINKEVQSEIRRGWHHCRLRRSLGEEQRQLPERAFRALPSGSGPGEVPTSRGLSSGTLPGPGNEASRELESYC


These binders were tested against human GLP-1 receptor (human, UniProt P43220 24-463) (assay: cell-based or functional assay).

Compared with Y[Aib]QGTFTSDYSKALDEKAAKEFVQWLLDQHPSSGQPPPSC (bridge 16-20) [triple agonist of SEQ ID NO: 100], Y[Aib]QGTFTSDYSKALDEKAAKEFVNWLLDQHPSSGQPPPSC (bridge 16-20) [triple agonist of SEQ ID NO: 101] is lower in “In vitro Activity Compared to Native Peptide (%) vs. GLP-1” value: 42.2% for the first, 23.2% for the second.

First: Y[Aib]QGTFTSDYSKALDEKAAKDFVNWLLDQHPSSGQPPPSC (bridge 16-20) [triple agonist of SEQ ID NO: 102]
Second: [Acetyl(2-(4-imidazolyl))]GEGTFTSDLSKYLDSRRQQLFVQWLKAGGPSSGAPPPSHG [triple agonist of SEQ ID NO: 11]
The “In vitro Activity Compared to Native Peptide (%) vs. GLP-1” value of the first is higher: 23.3% for the first, 1.4% for the second.

First: [Acetyl(2-(4-imidazolyl))]GEGTFISDLSKYMDEQAVQLFVEWLMAGGPSSGAPPPSHG [triple agonist of SEQ ID NO: 12]
Second: [Acetyl(2-(4-imidazolyl))]GEGTFISDYSIQLDEIAVQDFVEWLLAQKPSSGAPPPSHG [triple agonist of SEQ ID NO: 13]
The “In vitro Activity Compared to Native Peptide (%) vs. GLP-1” value of the first is higher: 0.4% for the first, less than 0.1% for the second.

Compared with H[Aib]QGTFTSDVSSYLDGQAQKEFIAWLVKGC [triple agonist of SEQ ID NO: 2], [Acetyl(2-(4-imidazolyl))]GQGTFTSDYSIQLDEIAVRDFVEWLKNGGPSSGAPPPSHG [triple agonist of SEQ ID NO: 14] is higher in “In vitro Activity Compared to Native Peptide (%) vs. GLP-1” value: 5.9% for the first, 28% for the second.

Going from [Acetyl(2-(4-imidazolyl))]GQGTFTSDLSKQMDSEAQQLFIEWLKNGGPSSGAPPPSHG [triple agonist of SEQ ID NO: 16] to [Acetyl(2-(4-imidazolyl))]GQGTFTSDLSKQMDEERAREFIEWLLAQKPSSGAPPPSHG [triple agonist of SEQ ID NO: 17], the “In vitro Activity Compared to Native Peptide (%) vs. GLP-1” value falls from 2.1% to 0.2%.

[Acetyl(2-(4-imidazolyl))]GQGTFTSDLSKQMDSERAREFIEWLKNTGPSSGAPPPSHG [triple agonist of SEQ ID NO: 18] and [Acetyl(2-(4-imidazolyl))]GQGTFTSDLSIQYDSEHQRDFIEWLKDTGPSSGAPPPSHG [triple agonist of SEQ ID NO: 19] cannot be ordered by “In vitro Activity Compared to Native Peptide (%) vs. GLP-1” value: less than 0.1% for the first, less than 0.1% for the second.

Going from [Acetyl(2-(4-imidazolyl))]GQGTFTSDLSIQYEEEAQQDFVEWLKDTGPSSGAPPPSHG [triple agonist of SEQ ID NO: 20] to Y[Aib]QGTFTSDYSKYLDECRAKEFVQWLLDHHPSSGQPPPS (bridge 16-20) [triple agonist of SEQ ID NO: 21], the “In vitro Activity Compared to Native Peptide (%) vs. GLP-1” value rises from less than 0.1% to 17.8%.

With Y[Aib]QGTFTSDYSKCLDEKRAKEFVQWLLDHHPSSGQPPPS (bridge 16-20) [triple agonist of SEQ ID NO: 22] the “In vitro Activity Compared to Native Peptide (%) vs. GLP-1” value was 20.1%.

Each binder was assayed against human GCG receptor (human, UniProt P47871 26-477) (assay: cell-based or functional assay).
Sequence of human GCG receptor (P47871 26-477): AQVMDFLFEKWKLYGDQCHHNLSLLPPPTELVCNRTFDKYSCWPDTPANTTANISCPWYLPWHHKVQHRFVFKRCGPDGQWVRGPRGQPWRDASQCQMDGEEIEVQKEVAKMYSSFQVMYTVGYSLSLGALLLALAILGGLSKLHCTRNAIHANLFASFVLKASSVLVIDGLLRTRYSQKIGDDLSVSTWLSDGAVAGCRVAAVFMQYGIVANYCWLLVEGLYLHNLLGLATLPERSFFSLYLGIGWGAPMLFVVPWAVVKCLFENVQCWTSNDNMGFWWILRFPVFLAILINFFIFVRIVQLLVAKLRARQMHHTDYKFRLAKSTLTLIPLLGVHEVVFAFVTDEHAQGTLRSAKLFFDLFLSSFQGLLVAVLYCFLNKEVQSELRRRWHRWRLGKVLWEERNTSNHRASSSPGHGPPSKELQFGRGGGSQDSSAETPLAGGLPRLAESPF

First: Y[Aib]QGTFTSDYSKALDEKAAKEFVQWLLDQHPSSGQPPPSC (bridge 16-20) [triple agonist of SEQ ID NO: 100]
Second: Y[Aib]QGTFTSDYSKALDEKAAKEFVNWLLDQHPSSGQPPPSC (bridge 16-20) [triple agonist of SEQ ID NO: 101]
The “In vitro Activity Compared to Native Peptide (%) vs. Glucagon” value of the first is lower: 12.7% for the first, 13.9% for the second.

Going from Y[Aib]QGTFTSDYSKALDEKAAKDFVNWLLDQHPSSGQPPPSC (bridge 16-20) [triple agonist of SEQ ID NO: 102] to [Acetyl(2-(4-imidazolyl))]GEGTFTSDLSKYLDSRRQQLFVQWLKAGGPSSGAPPPSHG [triple agonist of SEQ ID NO: 11], the “In vitro Activity Compared to Native Peptide (%) vs. Glucagon” value falls from 29.5% to less than 0.1%.

[Acetyl(2-(4-imidazolyl))]GEGTFISDLSKYMDEQAVQLFVEWLMAGGPSSGAPPPSHG [triple agonist of SEQ ID NO: 12] and [Acetyl(2-(4-imidazolyl))]GEGTFISDYSIQLDEIAVQDFVEWLLAQKPSSGAPPPSHG [triple agonist of SEQ ID NO: 13] cannot be ordered by “In vitro Activity Compared to Native Peptide (%) vs. Glucagon” value: less than 0.1% for the first, less than 0.1% for the second.

H[Aib]QGTFTSDVSSYLDGQAQKEFIAWLVKGC [triple agonist of SEQ ID NO: 2] and [Acetyl(2-(4-imidazolyl))]GQGTFTSDYSIQLDEIAVRDFVEWLKNGGPSSGAPPPSHG [triple agonist of SEQ ID NO: 14] cannot be ordered by “In vitro Activity Compared to Native Peptide (%) vs. Glucagon” value: less than 0.1% for the first, less than 0.1% for the second.

[Acetyl(2-(4-imidazolyl))]GQGTFTSDLSKQMDSEAQQLFIEWLKNGGPSSGAPPPSHG [triple agonist of SEQ ID NO: 16] and [Acetyl(2-(4-imidazolyl))]GQGTFTSDLSKQMDEERAREFIEWLLAQKPSSGAPPPSHG [triple agonist of SEQ ID NO: 17] cannot be ordered by “In vitro Activity Compared to Native Peptide (%) vs. Glucagon” value: less than 0.1% for the first, less than 0.1% for the second.

[Acetyl(2-(4-imidazolyl))]GQGTFTSDLSKQMDSERAREFIEWLKNTGPSSGAPPPSHG [triple agonist of SEQ ID NO: 18] and [Acetyl(2-(4-imidazolyl))]GQGTFTSDLSIQYDSEHQRDFIEWLKDTGPSSGAPPPSHG [triple agonist of SEQ ID NO: 19] cannot be ordered by “In vitro Activity Compared to Native Peptide (%) vs. Glucagon” value: less than 0.1% for the first, less than 0.1% for the second.

Compared with [Acetyl(2-(4-imidazolyl))]GQGTFTSDLSIQYEEEAQQDFVEWLKDTGPSSGAPPPSHG [triple agonist of SEQ ID NO: 20], Y[Aib]QGTFTSDYSKYLDECRAKEFVQWLLDHHPSSGQPPPS (bridge 16-20) [triple agonist of SEQ ID NO: 21] is higher in “In vitro Activity Compared to Native Peptide (%) vs. Glucagon” value: less than 0.1% for the first, 267% for the second.

Y[Aib]QGTFTSDYSKCLDEKRAKEFVQWLLDHHPSSGQPPPS (bridge 16-20) [triple agonist of SEQ ID NO: 22] was tested, and the “In vitro Activity Compared to Native Peptide (%) vs. Glucagon” value was 140%.

The binders below were run against T1, human GIP receptor (assay: cell-based or functional assay).

Compared with Y[Aib]QGTFTSDYSKALDEKAAKEFVQWLLDQHPSSGQPPPSC (bridge 16-20) [triple agonist of SEQ ID NO: 100], Y[Aib]QGTFTSDYSKALDEKAAKEFVNWLLDQHPSSGQPPPSC (bridge 16-20) [triple agonist of SEQ ID NO: 101] is lower in “In vitro Activity Compared to Native Peptide (%) vs. GIP” value: 118% for the first, 40.1% for the second.

First: Y[Aib]QGTFTSDYSKALDEKAAKDFVNWLLDQHPSSGQPPPSC (bridge 16-20) [triple agonist of SEQ ID NO: 102]
Second: [Acetyl(2-(4-imidazolyl))]GEGTFTSDLSKYLDSRRQQLFVQWLKAGGPSSGAPPPSHG [triple agonist of SEQ ID NO: 11]
The “In vitro Activity Compared to Native Peptide (%) vs. GIP” value of the first is higher: 58% for the first, less than 0.1% for the second.

[Acetyl(2-(4-imidazolyl))]GEGTFISDLSKYMDEQAVQLFVEWLMAGGPSSGAPPPSHG [triple agonist of SEQ ID NO: 12] and [Acetyl(2-(4-imidazolyl))]GEGTFISDYSIQLDEIAVQDFVEWLLAQKPSSGAPPPSHG [triple agonist of SEQ ID NO: 13] cannot be ordered by “In vitro Activity Compared to Native Peptide (%) vs. GIP” value: less than 0.1% for the first, less than 0.1% for the second.

H[Aib]QGTFTSDVSSYLDGQAQKEFIAWLVKGC [triple agonist of SEQ ID NO: 2] and [Acetyl(2-(4-imidazolyl))]GQGTFTSDYSIQLDEIAVRDFVEWLKNGGPSSGAPPPSHG [triple agonist of SEQ ID NO: 14] cannot be ordered by “In vitro Activity Compared to Native Peptide (%) vs. GIP” value: less than 0.1% for the first, less than 0.1% for the second.

[Acetyl(2-(4-imidazolyl))]GQGTFTSDLSKQMDSEAQQLFIEWLKNGGPSSGAPPPSHG [triple agonist of SEQ ID NO: 16] and [Acetyl(2-(4-imidazolyl))]GQGTFTSDLSKQMDEERAREFIEWLLAQKPSSGAPPPSHG [triple agonist of SEQ ID NO: 17] cannot be ordered by “In vitro Activity Compared to Native Peptide (%) vs. GIP” value: less than 0.1% for the first, less than 0.1% for the second.

[Acetyl(2-(4-imidazolyl))]GQGTFTSDLSKQMDSERAREFIEWLKNTGPSSGAPPPSHG [triple agonist of SEQ ID NO: 18] and [Acetyl(2-(4-imidazolyl))]GQGTFTSDLSIQYDSEHQRDFIEWLKDTGPSSGAPPPSHG [triple agonist of SEQ ID NO: 19] cannot be ordered by “In vitro Activity Compared to Native Peptide (%) vs. GIP” value: less than 0.1% for the first, less than 0.1% for the second.

Compared with [Acetyl(2-(4-imidazolyl))]GQGTFTSDLSIQYEEEAQQDFVEWLKDTGPSSGAPPPSHG [triple agonist of SEQ ID NO: 20], Y[Aib]QGTFTSDYSKYLDECRAKEFVQWLLDHHPSSGQPPPS (bridge 16-20) [triple agonist of SEQ ID NO: 21] is higher in “In vitro Activity Compared to Native Peptide (%) vs. GIP” value: less than 0.1% for the first, 22.7% for the second.

For Y[Aib]QGTFTSDYSKCLDEKRAKEFVQWLLDHHPSSGQPPPS (bridge 16-20) [triple agonist of SEQ ID NO: 22], the “In vitro Activity Compared to Native Peptide (%) vs. GIP” value was 59.7%.

From patent US20230118307A1, “THERAPEUTIC USE OF LONG-ACTING CONJUGATE OF TRIPLE AGONIST HAVING ACTIVITIES TO ALL OF GLUCAGON/GLP-1/GIP RECEPTORS FOR LUNG DISEASE” (HANMI PHARM. CO., LTD., priority 2020, published 2023)
